Entries after “also recorded” stand apart in the source; their conditions may differ.
B1: Nanobody 238D4 (VHH)
VHH: EVQLMESGGGLVQAGGSLRLSCAASGRTFNNYAMGWFRRAPGKEREFVAAITRSGVRSGVSAIYGDSVKDRFTISRDNAKNTLYLQMNSLKPEDTAVYTCAASAIGSGALRRFEYDYSGQGTQVTVSS
B2: 238D2: monovalent anti CXCR4 Nanobody, SEQ ID NO: 2 (protein)
VHH: EVQLVESGGGLVQTGGSLRLSCAASGFTFSSYAMSWVRQAPGKGLEWVSGIKSSGDSTRYAGSVKGRFTISRDNAKNMLYLQMYSLKPEDTAVYYCAKSRVSRTGLYTYDNRGQGTQVTVSS
modifications: Nanobody

Key:
[1] = molecular target: T1, wildtype human CXCR4 (pcDNA3.1-CXCR4, expressed in HEK293T) (human, UniProt P61073 1-352); experiment: competition with [125I]-CXCL12, HEK293T-CXCR4 membranes
T1 construct: whole, on cells; also called hCXCR4; HEK293T CXCR4
T1 sequence (P61073 whole entry): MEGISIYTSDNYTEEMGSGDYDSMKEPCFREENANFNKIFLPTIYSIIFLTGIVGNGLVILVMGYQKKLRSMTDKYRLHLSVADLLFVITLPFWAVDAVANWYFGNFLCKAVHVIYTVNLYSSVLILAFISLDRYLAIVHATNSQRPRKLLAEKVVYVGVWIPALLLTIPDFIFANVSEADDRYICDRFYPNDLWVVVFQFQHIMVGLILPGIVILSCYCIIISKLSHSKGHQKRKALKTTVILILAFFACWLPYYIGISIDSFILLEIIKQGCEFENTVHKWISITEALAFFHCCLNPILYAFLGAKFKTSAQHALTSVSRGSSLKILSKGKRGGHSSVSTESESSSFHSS

[2] = molecular target: all CXCR4 library clones containing a mutation at D187; experiment: immunofluorescence, average over all clones with a mutation at D187
[3] = molecular target: all CXCR4 library clones containing a mutation at F189; experiment: immunofluorescence, average over all clones with a mutation at F189
[4] = molecular target: all CXCR4 library clones containing a mutation at S178; experiment: immunofluorescence, average over all clones with a mutation at S178
CXCR4 [5] = molecular target: T2, CXCR4 (Homo sapiens, UniProt P61073); experiment: Competition binding, displacement of [^125I]-CXCL12 on membranes from HEK293T cells transiently expressing CXCR4
T2 construct: expressed in transfected cells; host or cells: HEK293T, transient; membrane fraction
T2 sequence (P61073 whole entry): as above
Protocol: (§1) Iodine incorporation and specific activity were controlled via precipitation of the protein with trichloroacetic acid.
(§2) Competition binding assay—Periplasmic fractions were screened in a competition binding assay using membranes from HEK293T cells transiently expressing CXCR4. […] Membranes were then harvested over polyethylenimine (0.5%)-treated Whatman GF/C filter plates and washed three times with ice cold binding buffer containing 500 mM NaCl. Plates were counted by liquid scintillation.
(§3) Characterization of Nanobody binding to CXCR4—Following purification, receptor binding to characteristics for 238D2 and 238D4 were investigated on cell membranes from HEK293T cells transiently expressing CXCR4.
(§4) Data analysis and presentation—Data are presented as mean±S.E.M. from n independent experiments. Concentration response curves (E/[A] curves) were fitted to the Hill equation using an iterative, least-squares method (GraphPad Prism 4.0, GraphPad Software, San Diego, Calif.) to provide maximal inhibitory effects (Imax), half maximal effective (EC50) or inhibitory concentrations (IC50). Competition binding affinities and functional antagonist affinities (Ki) were calculated using the Cheng and Prusoff equation Ki=IC50/(1+[agonist]/EC50) (Cheng & Prusoff, 1973).

CXCR4 [6] = molecular target: T2, CXCR4; experiment: Competition binding, displacement of [^125I]-238D2 on membranes from HEK293T cells transiently expressing CXCR4; conditions: mean ± S.E.M.
Protocol: as §1, §2, §3, §4

[7] = molecular target: T3, CXCR4 mutation library (Human CXCR4-short) (Homo sapiens, UniProt P61073, D187V); experiment: Shotgun mutagenesis epitope mapping, immunofluorescence on CXCR4 mutation library in HEK-293T; type: binding; conditions: residue D187; mutation D187V; normalized to wild type; 3 experiments (+/−range)
T3 construct: expressed in transfected cells; host or cells: HEK-293T, transient, 384-well
T3 sequence (P61073 whole entry D187V): as the sequence (P61073 whole entry) above, with D187V counted along it
From the text: (§5) Method: See e.g. Willis, et al. 2008. Virus-like particles as quantitative probes of membrane protein interactions. Biochemistry 47:6988-6990. In short, the method comprises the following steps:
(§6) Create comprehensive mutation library • Start with a cDNA in eukaryotic expression plasmid • Create library where every amino acid is individually mutated
(§7) Express each clone within living cells in 384-well microplates
(§8) Detect structure and/or function of proteins
(§9) • Parental plasmid: Human CXCR4-short (SEQ ID NO: 6, 352 amino acids) • Epitope tags: N-terminal Flag (to detect surface expression), C-terminal V5 (to detect full-length translation) • Cell types used for immunofluorescence assays: HEK-293T
(§10) The immunofluorescence assay conditions (to detect binding) were optimized for the nanbodies to be tested. In short, 384-well immunofluorescence (IF) assay using HEK-293T cells transiently was transfected with different concentrations of CXCR4 DNA. The plate was first incubated with different concentrations of either Nanobody 238D2 or 238D4, then with 9E10, and finally with Cy3. The commercially-available anti-CXCR4 MAb 12G5 was used as an IF control.
(§11) Mapping Nanobody Binding to CXCR4 Mutation Library: The entire library was screened in triplicate with each Nanobody. The data was background-subtracted and normalized to wild type reactivity and averaged across the repeats. Nanobody binding was plotted as a function of average surface expression, and measured by immunoreactivity of an N-terminal Flag epitope tag. Thresholds of 60% Flag and 30% Nanobody were used to identify critical clones. Using standard IF conditions, we identified 1 critical residue (2 critical clones). Using increased stringency assay conditions (high salt), we identified 5 additional residues (Tables C-3 and C-4).

[8] = molecular target: T4, CXCR4 mutation library (Human CXCR4-short) (Homo sapiens, UniProt P61073, N192K); experiment: as above; type: binding; conditions: residue N192; mutation N192K; normalized to wild type; 3 experiments (+/−range); 238D2 critical residues under high stringency
T4 construct: expressed in transfected cells; host or cells: HEK-293T, transient, 384-well
T4 sequence (P61073 whole entry N192K): as the sequence (P61073 whole entry) above, with N192K counted along it
From the text: as §5, §6, §7, §8, §9, §10, §11

[9] = molecular target: T5, CXCR4 mutation library (Human CXCR4-short) (Homo sapiens, UniProt P61073, V196E); experiment: as above; type: binding; conditions: residue V196; mutation V196E; normalized to wild type; 3 experiments (+/−range); 238D2 critical residues under high stringency
T5 construct: expressed in transfected cells; host or cells: HEK-293T, transient, 384-well
T5 sequence (P61073 whole entry V196E): as the sequence (P61073 whole entry) above, with V196E counted along it
From the text: as §5, §6, §7, §8, §9, §10, §11

CXCR4 mutant 1 (F189V) = molecular target: T6, CXCR4 mutant 1 (F189V) (Homo sapiens, UniProt P61073, F189V); experiment: Footprint assay, flow cytometry binding to CXCR4 F189V on Hek293T cells; conditions: Myc-tag detection, 10 nM and 100 nM Nanobody, average n = 3, relative to hCXCR4
T6 construct: expressed in transfected cells; host or cells: Hek293T, transient, pcDNA3.1
T6 sequence (P61073 whole entry F189V): as the sequence (P61073 whole entry) above, with F189V counted along it
From the text: (§12) Based on the data from example 1.8, we introduced 3 single point-mutations in ECL2 of CXCR4 that allowed to discriminate between 238D2 and 238D4-like epitopes: V196E (specifically disturbing D2 binding)-SEQ ID NO: 20, D187V (specifically disturbing D4 binding)-SEQ ID NO: 21, F189V (disturbing binding of both D2 and D4)-SEQ ID NO: 19. […] For the epitope mapping, transient transfections of the three CXCR4 mutants and wildtype human CXCR4 in the pcDNA3.1 vector were done in Hek293T cells, after which Nanobody binding of different families was assessed by flow cytometry using detection of the Myc-tag, followed by secondary anti-mouse PE. Two concentrations of Nanobody were tested, 10 nM and 100 nM, and experiment was repeated with essentially the same results. Binding of the Nanobodies to HEK293T hCXCR4 cells was used for normalization using the following formulas:
(§13) Percentage of binding to the mutant receptors was calculated for each Nanobody concentration, and a position was considered as critical when less than 25% residual binding (average of n=3) was observed (Table C-5). […] Nanobodies could be grouped according to their different binding patterns, not only in “238D2-like” or “epitope A binders” and “238D4-like” or “epitope B binders” but also into other new groups.

CXCR4 mutant 2 (V196E) = molecular target: T7, CXCR4 mutant 2 (V196E) (Homo sapiens, UniProt P61073, V196E); experiment: Footprint assay, flow cytometry binding to CXCR4 V196E on Hek293T cells; conditions: Myc-tag detection, 10 nM and 100 nM Nanobody, average n = 3, relative to hCXCR4
T7 construct: expressed in transfected cells; host or cells: Hek293T, transient, pcDNA3.1
T7 sequence (P61073 whole entry V196E): as the sequence (P61073 whole entry) above, with V196E counted along it
From the text: as §12, §13

| Molecule | pKi [1] [pKi] | average nanobody reactivity [2] [%] | average nanobody reactivity [3] [%] | average nanobody reactivity [4] [%] | functional antagonist affinities (Ki) to CXCR4 (CXCR4 [5]; in words, [^125I]-CXCL12 displacement) | [^125I]-CXCL12 Displacem. (%) (CXCR4 [5]; maximal displacement, membranes from HEK293T cells transiently expressing CXCR4, mean ± S.E.M.) | displacement of specifically bound [^125I]-CXCL12 (in words) (CXCR4 [5]; membranes from HEK293T cells transiently expressing CXCR4) | [^125I]-CXCL12 pKi (CXCR4 [5]; receptor affinity, membranes from HEK293T cells transiently expressing CXCR4, mean ± S.E.M.) | [^125I]-238D2 Displacem. (%) (CXCR4 [6]; maximal displacement) | [^125I]-238D2 pKi (CXCR4 [6]; receptor affinity) | % immunofluoresence, clone 2084 [7] | % immunofluoresence, clone 914 [8] | % immunofluoresence, clone 2270 [9] | HEK293T F189V binding (CXCR4 mutant 1 (F189V)) | Hek293T V196E binding (CXCR4 mutant 2 (V196E)) |
| --- | --- | --- | --- | --- | --- | --- | --- | --- | --- | --- | --- | --- | --- | --- | --- |
| B1 | 8.22 | -12.2 | 0.2 | 23.2 | – | – | – | – | – | – | – | – | – | – | – |
| B2 | – | – | – | – | low nanomolar range | 93 ± 5 | strongly displacing; also recorded: fully displace | 8.01 ± 0.12 | 97 ± 6 | 8.41 ± 0.11 | 93.6 (5.2) % | 8.3 (3.6) % | 20.6 (32.9) % | − (<=25% binding to mutant rel. to hCXCR4) | − (<=25% binding to mutant rel. to hCXCR4) |
